*1 amine or outer side, *2 acyl side, *3 side chain or, on linkers, in order; H or OH if unused. Primed or numbered codes have the meaning given here. Side-chain parts run from the residue outwards. [ ]: non-standard residue; d: D form. The star is where a group is joined. γGlu = O=C(O)[C@H](CCC(=O)[*:2])N[*:1]; Stearoyl = CCCCCCCCCCCCCCCCCC(=O)*; Palmitoyl = CCCCCCCCCCCCCCCC(=O)*; αMeK = C[C@](N)(CCCCN)C(=O)O; Nle = CCCC[C@H](N)C(=O)O; PEG2′ = PEG2 spacer unit; PEG2″ = not defined here; Aib = CC(C)(N)C(=O)O

This note sets out measurements from US20190233493A1 (Sanofi, published 2019).

T1: RXFP1 receptor (UniProt Q9HBX9 1-757, limits assumed)
T1 sequence (looked up): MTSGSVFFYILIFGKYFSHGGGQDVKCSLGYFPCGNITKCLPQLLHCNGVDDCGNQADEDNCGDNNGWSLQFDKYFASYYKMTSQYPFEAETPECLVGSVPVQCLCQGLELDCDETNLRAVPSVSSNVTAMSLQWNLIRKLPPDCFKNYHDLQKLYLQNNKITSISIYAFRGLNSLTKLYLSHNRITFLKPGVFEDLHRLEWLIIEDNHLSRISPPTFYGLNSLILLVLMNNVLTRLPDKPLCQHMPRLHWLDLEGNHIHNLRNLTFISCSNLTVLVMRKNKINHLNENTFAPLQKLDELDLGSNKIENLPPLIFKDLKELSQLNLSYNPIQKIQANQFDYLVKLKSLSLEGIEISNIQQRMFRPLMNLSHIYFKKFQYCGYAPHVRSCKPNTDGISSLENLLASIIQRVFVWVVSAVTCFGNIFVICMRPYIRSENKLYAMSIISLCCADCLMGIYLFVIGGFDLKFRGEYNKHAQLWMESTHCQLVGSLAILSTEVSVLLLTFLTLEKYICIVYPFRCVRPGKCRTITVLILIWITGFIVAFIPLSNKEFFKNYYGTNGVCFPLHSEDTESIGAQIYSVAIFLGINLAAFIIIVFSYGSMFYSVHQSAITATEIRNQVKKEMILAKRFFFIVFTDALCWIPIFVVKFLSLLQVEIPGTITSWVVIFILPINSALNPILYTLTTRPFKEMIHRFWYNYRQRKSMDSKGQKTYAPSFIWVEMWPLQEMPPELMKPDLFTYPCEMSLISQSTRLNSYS

B1: peptide of SEQ ID NO: 62 (peptide)
peptide: Ac-LEGREKVRAK(Ac)I[Aib][Aib]EG[Nle]STWS[Aib]RKK(Ac)K([PEG2′-PEG2′-γGlu-γGlu-γGlu-Palmitoyl])-NH2
B2: peptide of SEQ ID NO: 63 (peptide)
peptide: Ac-LEGREKVRAK(Ac)I[Aib][Aib]EG[Nle]STWS[Aib]RKK(Ac)K([PEG2′-PEG2′-PEG2′-γGlu-γGlu-γGlu-Palmitoyl])-NH2
B3: peptide of SEQ ID NO: 1 (peptide)
peptide: Ac-LEGREKVRAAI[Aib][Aib]EG[Nle]STWS[Aib]RKK(Palmitoyl)-NH2
SMILES: CCCCCCCCCCCCCCCC(=O)NCCCC[C@H](NC(=O)[C@H](CCCCN)NC(=O)[C@H](CCCNC(=N)N)NC(=O)C(C)(C)NC(=O)[C@H](CO)NC(=O)[C@H](Cc1c[nH]c2ccccc12)NC(=O)[C@@H](NC(=O)[C@H](CO)NC(=O)[C@H](CCCC)NC(=O)CNC(=O)[C@H](CCC(=O)O)NC(=O)C(C)(C)NC(=O)C(C)(C)NC(=O)[C@@H](NC(=O)[C@H](C)NC(=O)[C@H](C)NC(=O)[C@H](CCCNC(=N)N)NC(=O)[C@@H](NC(=O)[C@H](CCCCN)NC(=O)[C@H](CCC(=O)O)NC(=O)[C@H](CCCNC(=N)N)NC(=O)CNC(=O)[C@H](CCC(=O)O)NC(=O)[C@H](CC(C)C)NC(C)=O)C(C)C)[C@@H](C)CC)[C@@H](C)O)C(N)=O
B4: peptide of SEQ ID NO: 59 (peptide)
peptide: Ac-LEGREKVRAK(Ac)I[Aib][Aib]EG[Nle]STWS[Aib]RKK([PEG2′-PEG2′-γGlu-γGlu-γGlu-Palmitoyl])-NH2
B5: peptide of SEQ ID NO: 54 (peptide)
peptide: Ac-ELEGREKVRAAI[Aib][Aib]EG[Nle]STWS[Aib]RKK([PEG2′-γGlu-γGlu-Palmitoyl])-NH2
B6: peptide of SEQ ID NO: 56 (peptide)
peptide: Ac-LEGREKVRAQI[Aib][Aib]EG[Nle]STWS[Aib]RKKK([PEG2′-PEG2′-γGlu-Stearoyl])-NH2
B7: peptide of SEQ ID NO: 55 (peptide)
peptide: Ac-LEGREKVRAQI[Aib][Aib]EG[Nle]STWS[Aib]RKK([PEG2′-γGlu-γGlu-γGlu-Palmitoyl])-NH2
B8: peptide of SEQ ID NO: 6 (peptide)
peptide: Ac-ELEGREKVRAAI[Aib][Aib]EG[Nle]STWS[Aib]RKKK([γGlu-γGlu-γGlu-Palmitoyl])-NH2
SMILES: CCCCCCCCCCCCCCCC(=O)N[C@@H](CCC(=O)N[C@@H](CCC(=O)N[C@@H](CCC(=O)NCCCC[C@H](NC(=O)[C@H](CCCCN)NC(=O)[C@H](CCCCN)NC(=O)[C@H](CCCNC(=N)N)NC(=O)C(C)(C)NC(=O)[C@H](CO)NC(=O)[C@H](Cc1c[nH]c2ccccc12)NC(=O)[C@@H](NC(=O)[C@H](CO)NC(=O)[C@H](CCCC)NC(=O)CNC(=O)[C@H](CCC(=O)O)NC(=O)C(C)(C)NC(=O)C(C)(C)NC(=O)[C@@H](NC(=O)[C@H](C)NC(=O)[C@H](C)NC(=O)[C@H](CCCNC(=N)N)NC(=O)[C@@H](NC(=O)[C@H](CCCCN)NC(=O)[C@H](CCC(=O)O)NC(=O)[C@H](CCCNC(=N)N)NC(=O)CNC(=O)[C@H](CCC(=O)O)NC(=O)[C@H](CC(C)C)NC(=O)[C@H](CCC(=O)O)NC(C)=O)C(C)C)[C@@H](C)CC)[C@@H](C)O)C(N)=O)C(=O)O)C(=O)O)C(=O)O
B9: peptide of SEQ ID NO: 51 (peptide)
peptide: Ac-LEGREKVRAQI[Aib][Aib]EG[Nle]STWS[Aib]RKK(Ac)K([PEG2′-PEG2′-Stearoyl])-NH2
B10: peptide of SEQ ID NO: 57 (peptide)
peptide: Ac-ELEGREKVRAAI[Aib][Aib]EG[Nle]STWS[Aib]RKK([PEG2′-PEG2′-γGlu-γGlu-Palmitoyl])-NH2
B11: peptide of SEQ ID NO: 50 (peptide)
peptide: Ac-LEGREKVRAQI[Aib][Aib]EG[Nle]STWS[Aib]RKK([PEG2′-Palmitoyl])-NH2
B12: peptide of SEQ ID NO: 64 (peptide)
peptide: Ac-LEGREKVRAK(Ac)I[Aib][Aib]EG[Nle]STWS[Aib]RKK(Ac)K([PEG2″-PEG2″-PEG2″-PEG2″-γGlu-γGlu-γGlu-Palmitoyl])-NH2
B13: peptide of SEQ ID NO: 5 (peptide)
peptide: Ac-LEGREKVRAQI[Aib][Aib]EGMSTWS[Aib]RK([γGlu-γGlu-Palmitoyl])-NH2
SMILES: CCCCCCCCCCCCCCCC(=O)N[C@@H](CCC(=O)N[C@@H](CCC(=O)NCCCC[C@H](NC(=O)[C@H](CCCNC(=N)N)NC(=O)C(C)(C)NC(=O)[C@H](CO)NC(=O)[C@H](Cc1c[nH]c2ccccc12)NC(=O)[C@@H](NC(=O)[C@H](CO)NC(=O)[C@H](CCSC)NC(=O)CNC(=O)[C@H](CCC(=O)O)NC(=O)C(C)(C)NC(=O)C(C)(C)NC(=O)[C@@H](NC(=O)[C@H](CCC(N)=O)NC(=O)[C@H](C)NC(=O)[C@H](CCCNC(=N)N)NC(=O)[C@@H](NC(=O)[C@H](CCCCN)NC(=O)[C@H](CCC(=O)O)NC(=O)[C@H](CCCNC(=N)N)NC(=O)CNC(=O)[C@H](CCC(=O)O)NC(=O)[C@H](CC(C)C)NC(C)=O)C(C)C)[C@@H](C)CC)[C@@H](C)O)C(N)=O)C(=O)O)C(=O)O
B14: peptide of SEQ ID NO: 58 (peptide)
peptide: Ac-LEGREKVRAQI[Aib][Aib]EG[Nle]STWS[Aib]RKK([PEG2′-PEG2′-γGlu-γGlu-γGlu-Palmitoyl])-NH2
B15: peptide of SEQ ID NO: 52 (peptide)
peptide: Ac-LEGREKVRAQI[Aib][Aib]EG[Nle]STWS[Aib]RKK(Ac)K([PEG2′-PEG2′-PEG2′-Stearoyl])-NH2
B16: peptide of SEQ ID NO: 65 (peptide)
peptide: Ac-LEGREKVRAK(Ac)I[Aib][Aib]EG[Nle]STWS[αMeK]RKK(Ac)K([PEG2″-PEG2″-PEG2″-γGlu-γGlu-γGlu-γGlu-Palmitoyl])-NH2
B17: peptide of SEQ ID NO: 61 (peptide)
peptide: Ac-LEGREKVRAK(Ac)I[Aib][Aib]EGK(Ac)STWS[Aib]RKKK([PEG2′-PEG2′-γGlu-γGlu-γGlu-Palmitoyl])-NH2
B18: peptide of SEQ ID NO: 60 (peptide)
peptide: Ac-LEGREKVRAK(Ac)I[Aib][Aib]EG[Nle]STWS[Aib]RKKK([PEG2′-PEG2′-γGlu-γGlu-γGlu-Palmitoyl])-NH2
B19: peptide of SEQ ID NO: 53 (peptide)
peptide: Ac-LEGREKVRAQI[Aib][Aib]EG[Nle]STWS[Aib]RKK([PEG2′-γGlu-Palmitoyl])-NH2

This experiment concerns the target T1, RXFP1 receptor. Description: cell-based or functional assay.
As for B1, the “EC50 (nM), OVCAR 5 cells (cAMP)” value was 1.14 nM and the “EMax, OVCAR 5 cells (cAMP)” value is 87%.

With B2, the “EC50 (nM), OVCAR 5 cells (cAMP)” value was 0.84 nM and the “EMax, OVCAR 5 cells (cAMP)” value came out at 80%.

As to B3, the “EC50 (nM), OVCAR 5 cells (cAMP)” value stood at 85.3 nM and the “EMax, OVCAR 5 cells (cAMP)” value was determined as 85%.

With B4, the “EC50 (nM), OVCAR 5 cells (cAMP)” value was determined as 28.2 nM and the “EMax, OVCAR 5 cells (cAMP)” value was determined as 85%.

As for B5, the “EC50 (nM), OVCAR 5 cells (cAMP)” value was determined as 18.6 nM and the “EMax, OVCAR 5 cells (cAMP)” value was 98%.

Regarding B6, the “EC50 (nM), OVCAR 5 cells (cAMP)” value is 0.51 nM and the “EMax, OVCAR 5 cells (cAMP)” value amounted to 95%.

As to B7, the “EC50 (nM), OVCAR 5 cells (cAMP)” value stood at 19.3 nM and the “EMax, OVCAR 5 cells (cAMP)” value turned out to be 94%.

For B8, the “EC50 (nM), OVCAR 5 cells (cAMP)” value stood at 18 nM and the “EMax, OVCAR 5 cells (cAMP)” value amounted to 100%.

Regarding B9, the “EC50 (nM), OVCAR 5 cells (cAMP)” value turned out to be 71.2 nM and the “EMax, OVCAR 5 cells (cAMP)” value came to 100%.

Consider B10, for which the “EC50 (nM), OVCAR 5 cells (cAMP)” value is 4.4 nM and the “EMax, OVCAR 5 cells (cAMP)” value was 93%.

Consider B11, for which the “EC50 (nM), OVCAR 5 cells (cAMP)” value was found to be 75.9 nM and the “EMax, OVCAR 5 cells (cAMP)” value amounted to 95%.

Consider B12, for which the “EC50 (nM), OVCAR 5 cells (cAMP)” value was found to be 0.2 nM and the “EMax, OVCAR 5 cells (cAMP)” value was determined as 81%.

As for B13, the “EC50 (nM), OVCAR 5 cells (cAMP)” value was 86.8 nM and the “EMax, OVCAR 5 cells (cAMP)” value came out at 105%.

On to B14, for which the “EC50 (nM), OVCAR 5 cells (cAMP)” value worked out at 14.8 nM and the “EMax, OVCAR 5 cells (cAMP)” value stood at 83%.

Regarding B15, the “EC50 (nM), OVCAR 5 cells (cAMP)” value is 56 nM and the “EMax, OVCAR 5 cells (cAMP)” value is 98%.

Take B16: the “EC50 (nM), OVCAR 5 cells (cAMP)” value is 0.12 nM and the “EMax, OVCAR 5 cells (cAMP)” value amounted to 93%.

For the molecule B17, the “EC50 (nM), OVCAR 5 cells (cAMP)” value was found to be 0.17 nM and the “EMax, OVCAR 5 cells (cAMP)” value was 93%.

For the molecule B18, the “EC50 (nM), OVCAR 5 cells (cAMP)” value was determined as 0.11 nM and the “EMax, OVCAR 5 cells (cAMP)” value was 91%.

For the molecule B19, the “EC50 (nM), OVCAR 5 cells (cAMP)” value came to 15.3 nM and the “EMax, OVCAR 5 cells (cAMP)” value amounted to 97%.
